These results are taken from paper PMC5344670, “Cryo-EM structure of the ATP-sensitive potassium channel illuminates mechanisms of assembly and gating” (eLife, 2017).

This series deals with the molecule itself. The series is described as follows: cryo-EM structure; digitonin-solubilised KATP channel complex in the presence of 1 mM ATP and 1 µM glibenclamide; single-particle analysis with C4 symmetry imposed.

B1: rat Kir6.2 (natural protein)
chain: MLSRKGIIPEEYVLTRLAEDPTEPRYRTRERRARFVSKKGNCNVAHKNIREQGRFLQDVFTTLVDLKWPHTLLIFTMSFLCSWLLFAMVWWLIAFAHGDLAPGEGTNVPCVTSIHSFSSAFLFSIEVQVTIGFGGRMVTEECPLAILILIVQNIVGLMINAIMLGCIFMKTAQAHRRAETLIFSKHAVITLRHGRLCFMLRVGDLRKSMIISATIHMQVVRKTTSPEGEVVPLHQVDIPMENGVGGNSIFLVAPLIIYHVIDSNSPLYDLAPSDLHHHQDLEIIVILEGVVETTGITTQARTSYLADEILWGQRFVPIVAEEDGRYSVDYSKFGNTVKVPTPLCTARQLDEDRSLLDALTLASSRGPLRKRSVAVAKAKPKFSISPDSLS
notes: Kir6.2, rat, inwardly rectifying K+ channel family; the final model holds residues 32-356; The eLife digest calls it the mouse form; results and methods say rat; source: INS-1 cells clone 832/13 (rat insulinoma), co-infected with recombinant adenoviruses; purified with f-SUR1 (digitonin, anti-FLAG M2 agarose, FLAG peptide elution, size exclusion chromatography)
Regarding B1, the “stoichiometry N” value came to 4.
